Reference: IntAct's records for PubMed 12386165

B1: Solute carrier family 12 member 6 (Mus musculus), Q924N4-1 (parent)
chain: MHPPEATTKMSSVRFMVTPTKIDDIPGLSDTSPDLSSRSSSRVRFSSRESVPETSRSEPMSELSGATTSLATVALDPSSDRTSNPQDVTEDPSQNSITGEHSQLLDDGHKKARNAYLNNSNYEEGDEYFDKNLALFEEEMDTRPKVSSLLNRMANYTNLTQGAKEHEEAENITEGKKKPTKSPQMGTFMGVYLPCLQNIFGVILFLRLTWVVGTAGILQAFAIVLICCCCTMLTAISMSAIATNGVVPAGGSYFMISRALGPEFGGAVGLCFYLGTTFAAAMYILGAIEIFLVYIVPRAAIFRSDDALKESAAMLNNMRVYGTAFLVLMVLVVFIGVRYVNKFASLFLACVIVSILAIYAGAIKSSFAPPHFPVCMLGNRTLSSRHLDICSKTKEVDNMTVPSKLWGFFCNSSQFFNATCDEYFVHNNVISIQGIPGLASGIITENLWSNYLPKGEIIEKPSAKSSDVLGNLNHEYVLADITTSFTLLVGIFFPSVTGIMAGSNRSGDLKDAQKSIPIGTILAILTTSFVYLSNVVLFGACIEGVVLRDKFGDAVKGNLVVGTLSWPSPWVIVIGSFFSTCGAGLQSLTGAPRLLQAIAKDNIIPFLRVFGHSKANGEPTWALLLTAAIAELGILIASLDLVAPILSMFFLMCYLFVNLACALQTLLRTPNWRPRFRYYHWALSFMGMSICLALMFISSWYYAIVAMVIAGMIYKYIEYQGAEKEWGDGIRGLSLSAARFALLRLEEGPPHTKNWRPQLLVLLKLDEDLHVKHPRLLTFASQLKAGKGLTIVGSVIVGNFLENYGDALAAEQTIKHLMEAEKVKGFCQLVVAAKLKEGISHLIQSCGLGGMKHNTVVMGWPNGWRQSEDARAWKTFIGTVRVTTAAHLALLVAKNVSFFPSNVEQFSEGNIDVWWIVHDGGMLMLLPFLLKQHKVWRKCSIRIFTVAQLEDNSIQMKKDLATFLYHLRIEAEVEVVEMHDSDISAYTYERTLMMEQRSQMLRHMRLSKTERDREAQLVKDRNSMLRLTSIGSDEDEETETYQEKVHMTWTKDKYMASRGQKVKSMEGFQDLLNMRPDQSNVRRMHTAVKLNEVIVNKSHEAKLVLLNMPGPPRNPEGDENYMEFLEVLTEGLERVLLVRGGGSEVITIYS
B2: Solute carrier family 12 member 1 (Homo sapiens), Q13621 (parent)
chain: MSLNNSSNVFLDSVPSNTNRFQVSVINENHESSAAADDNTDPPHYEETSFGDEAQKRLRISFRPGNQECYDNFLQSGETAKTDASFHAYDSHTNTYYLQTFGHNTMDAVPKIEYYRNTGSISGPKVNRPSLLEIHEQLAKNVAVTPSSADRVANGDGIPGDEQAENKEDDQAGVVKFGWVKGVLVRCMLNIWGVMLFIRLSWIVGEAGIGLGVLIILLSTMVTSITGLSTSAIATNGFVRGGGAYYLISRSLGPEFGGSIGLIFAFANAVAVAMYVVGFAETVVDLLKESDSMMVDPTNDIRIIGSITVVILLGISVAGMEWEAKAQVILLVILLIAIANFFIGTVIPSNNEKKSRGFFNYQASIFAENFGPRFTKGEGFFSVFAIFFPAATGILAGANISGDLEDPQDAIPRGTMLAIFITTVAYLGVAICVGACVVRDATGNMNDTIISGMNCNGSAACGLGYDFSRCRHEPCQYGLMNNFQVMSMVSGFGPLITAGIFSATLSSALASLVSAPKVFQALCKDNIYKALQFFAKGYGKNNEPLRGYILTFLIAMAFILIAELNTIAPIISNFFLASYALINFSCFHASYAKSPGWRPAYGIYNMWVSLFGAVLCCAVMFVINWWAAVITYVIEFFLYVYVTCKKPDVNWGSSTQALSYVSALDNALELTTVEDHVKNFRPQCIVLTGGPMTRPALLDITHAFTKNSGLCICCEVFVGPRKLCVKEMNSGMAKKQAWLIKNKIKAFYAAVAADCFRDGVRSLLQASGLGRMKPNTLVIGYKKNWRKAPLTEIENYVGIIHDAFDFEIGVVIVRISQGFDISQVLQVQEELERLEQERLALEATIKDNECEEESGGIRGLFKKAGKLNITKTTPKKDGSINTSQSMHVGEFNQKLVEASTQFKKKQEKGTIDVWWLFDDGGLTLLIPYILTLRKKWKDCKLRIYVGGKINRIEEEKIVMASLLSKFRIKFADIHIIGDINIRPNKESWKVFEEMIEPYRLHESCKDLTTAEKLKRETPWKITDAELEAVKEKSYRQVRLNELLQEHSRAANLIVLSLPVARKGSISDLLYMAWLEILTKNLPPVLLVRGNHKNVLTFYS

Assays:
[1] = variants of: B1; conditions: with oxsr1_mouse Oxsr1, Q6P9R2
Target sequence in this assay (Q6P9R2 whole entry): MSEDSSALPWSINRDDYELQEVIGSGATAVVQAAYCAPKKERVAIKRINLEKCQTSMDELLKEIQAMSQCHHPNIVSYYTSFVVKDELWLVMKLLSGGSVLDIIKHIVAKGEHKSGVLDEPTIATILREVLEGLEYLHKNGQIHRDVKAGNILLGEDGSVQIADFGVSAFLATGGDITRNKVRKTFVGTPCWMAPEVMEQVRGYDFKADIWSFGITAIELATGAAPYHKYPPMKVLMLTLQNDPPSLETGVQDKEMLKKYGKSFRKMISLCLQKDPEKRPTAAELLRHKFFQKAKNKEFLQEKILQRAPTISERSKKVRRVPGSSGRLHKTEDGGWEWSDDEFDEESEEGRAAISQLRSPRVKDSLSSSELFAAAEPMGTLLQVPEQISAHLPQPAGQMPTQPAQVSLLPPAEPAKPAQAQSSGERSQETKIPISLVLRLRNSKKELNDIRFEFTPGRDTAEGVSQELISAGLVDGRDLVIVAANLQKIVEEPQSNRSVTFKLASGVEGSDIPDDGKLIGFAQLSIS

[2] = variants of: B1; conditions: with stk39_mouse Stk39, Q9Z1W9
[3] = variants of: B2; conditions: with stk39_mouse Stk39, Q9Z1W9; remark: listed apart in the source
[4] = variants of: B2; conditions: with oxsr1_mouse Oxsr1, Q6P9R2; remark: listed apart in the source
Target sequence in this assay (Q6P9R2 whole entry): as above

| Variant | effect of a mutation on the interaction [1] | effect of a mutation on the interaction [2] | effect of a mutation on the interaction [3] | effect of a mutation on the interaction [4] |
| --- | --- | --- | --- | --- |
| I22A | decreasing interaction | decreasing interaction |  |  |
| P19A | decreasing interaction | decreasing interaction |  |  |
| F15A | decreasing interaction | decreasing interaction |  |  |
| R14A | decreasing interaction | decreasing interaction |  |  |
| V17A | decreasing interaction | decreasing interaction |  |  |
| K21A | decreasing interaction | decreasing interaction |  |  |
| E28A |  |  | decreasing interaction | decreasing interaction |
| R20A |  |  | decreasing interaction | decreasing interaction |
| V25A |  |  | decreasing interaction | decreasing interaction |
| N27A |  |  | decreasing interaction | decreasing interaction |
| S24A |  |  | decreasing interaction | decreasing interaction |
| V23A |  |  | decreasing interaction | decreasing interaction |
| F21A |  |  | decreasing interaction | decreasing interaction |
